Article PMC11316107, “PPTC7 antagonizes mitophagy by promoting BNIP3 and NIX degradation via SCF^FBXL4” (EMBO Reports, 2024)
Numbering of substitutions follows the chain as printed. One block for each binder: values may come before it.

Experiments:
Details in all cases: both partners purified
[1] = target: T1, recombinant PPTC7 (31-304) wild type (human, UniProt Q8NI37 31-304); assay: ITC; 500 µM peptide titrated into 25 µM PPTC7; 25 °C; 50 mM HEPES pH 7.5, 300 mM NaCl, 10 mM MnCl2, 2 mM β-mercaptoethanol; MicroCal PEAQ-ITC
T1 construct: PPTC7, human, residues 31-304; pGEX-6P-2 vector; also called PPTC7 wild-type; GST-PPTC7(31-304); source: E. coli BL21(DE3), purified (glutathione-sepharose, PreScission cleavage, Superdex 75)
T1 sequence (looked up): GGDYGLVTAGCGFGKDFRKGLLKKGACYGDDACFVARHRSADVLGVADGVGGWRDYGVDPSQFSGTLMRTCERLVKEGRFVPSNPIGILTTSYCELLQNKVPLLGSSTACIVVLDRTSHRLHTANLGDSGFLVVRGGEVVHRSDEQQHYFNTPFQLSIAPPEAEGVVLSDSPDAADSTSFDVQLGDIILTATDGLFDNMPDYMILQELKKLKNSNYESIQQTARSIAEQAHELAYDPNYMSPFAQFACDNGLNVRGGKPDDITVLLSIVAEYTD

[2] = target: T2, PPTC7 (31-304), wild type (human, UniProt Q8NI37 31-304); assay: ITC; 500 µM peptide (syringe) titrated into 25 µM PPTC7 (cell); 25 °C; 50 mM HEPES pH 7.5, 300 mM NaCl, 10 mM MnCl2, 2 mM β-mercaptoethanol; MicroCal PEAQ-ITC
T2 construct: human PPTC7, residues 31-304, from pGEX-6P-2 GST-PPTC7(31-304); GST removed with PreScission protease; assayed with 10 mM MnCl2 in the buffer; also called PPTC7 + Mn2+; Protein Phosphatase Targeting COQ7; source: E. coli BL21(DE3), purified (glutathione-sepharose, PreScission cleavage, Superdex 75 gel filtration); not shown: GST, N-terminal, cleaved
T2 sequence (looked up): T1 sequence (looked up)

PPTC7 (31-304) D290N = target: T3, PPTC7 (31-304) D290N (human, UniProt Q8NI37 31-304, D290N); assay: as above
T3 construct: human PPTC7, residues 31-304, from pGEX-6P-2 GST-PPTC7(31-304)(D290N); The purification is described for GST-PPTC7 (31-304); also called PPTC7 D290N; PPTC7-D290N; source: E. coli BL21(DE3), purified (glutathione-sepharose, PreScission cleavage, Superdex 75 gel filtration); not shown: GST, N-terminal, cleaved
T3 sequence (looked up): T1 sequence (looked up) with D260N

Kd [1]: 37.5 µM
B1: NIX peptide (A138-R163) (peptide)
peptide: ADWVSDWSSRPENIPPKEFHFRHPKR
notes: also called BNIP3L(A138-R163); source: synthetic peptide

stoichiometry N [2]: 1
B2: BNIP3(N113-R139) peptide (peptide)
peptide: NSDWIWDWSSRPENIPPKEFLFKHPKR
notes: human BNIP3, residues N113-R139 (Q12983, 194 aa); also called BNIP3 peptide; source: synthetic peptide

Kd (PPTC7 (31-304) D290N): 35.9 ± 1.09 µM
stoichiometry N (PPTC7 (31-304) D290N): 1
stoichiometry N [2]: 1
B3: BNIP3L(A138-R163) peptide (peptide)
peptide: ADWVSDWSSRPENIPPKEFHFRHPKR
notes: human NIX (BNIP3L), residues A138-R163; also called NIX; NIX peptide; source: synthetic peptide

Kd [1]: 20.1 µM
B4: BNIP3 peptide (N113-R139) (peptide)
peptide: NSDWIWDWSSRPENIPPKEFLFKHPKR
notes: also called BNIP3(N113-R139); source: synthetic peptide
